Measured values as given in patent US10654925B2, “Anti-marinobufagenin antibodies and uses thereof” (priority 2018, dated 2020).
Marks after values point to notes of the source that are not given here.

B1: 236/237: human anti-MBG antibody, VH SEQ ID NO: 14, VL SEQ ID NO: 15 (antibody, listed as Homo sapiens, V domains shown)
VH: QVQLQESGPGLVKPSETLSLTCTVSGGSISSSSYYWGWIRQPPGKGLEWIGSIYYSGSTYYNPSLKSRVTISVDTSKNQFSLKLSSVTAADTAVYYCARARYNWNYVLFDYWGQGTLVTVSS
VL: QAVLTQPSSVSAAPRQRVTISCSGSASNIGRNGVSWYHQVPGKAPRLLLSHDGLVTSGVPDRLSVSKSGTSASLAISGLHSDDEGDYYCAVWDDSLNAVVFGGGTKLTVLS
B2: 201/202: human anti-MBG antibody, VH SEQ ID NO: 22, VL SEQ ID NO: 23 (antibody, listed as Homo sapiens, V domains shown)
VH: QLQLQESGPGLVKPSQTLSLTCTVSGGSISSGGYYWGWIRQPPGKGLEWIGSIYYSGNTYYNPSLKSRVTISVDTSKNQFSLKLSSVTAADTAVYYCARASIAARTFDYWGQGTLVTVSS
VL: QSVLTQPPSVSAAPGQKVTISCSGSSSNIGNNYVSWYQQLPGTAPKLLIYDNNKRPSGIPDRFSGSKSGTSATLGITGLQTGDEADYYCGTWDSSLSAYVFGTGTKVTVL
B3: 206/208: human anti-MBG antibody, VH SEQ ID NO: 36, VL SEQ ID NO: 37 (antibody, listed as Homo sapiens, V domains shown)
VH: QVQLQESGPGLVKPSETLSLTCTVSGGSISSSSYYWGWIRQPPGKGLEWIGSIYYSGSTYYNPSLKSRVTISVDTSKNQFSLKLSSVTAADTAVYYCARVNLRGAFDIWGQGTTVTVSS
VL: QSVVTQPPSVSGAPGQRVTISCTGSSSNIGAGYDVHWYQQLPGTAPKLLIYENNKRPSGIPDRFSGSKSGTSATLGITGLQTGDEADYYCGTWDSSLSAVVFGGGTKLTVL

Tests used:
human CTB cells = format: cell-based
[1] = test system: pregnant Sprague-Dawley rats; test: DOCA/saline rat model of pre-eclampsia; format: in vivo; settings: tail cuff; baseline; antibodies 2.2 mg/kg/d i.p. days 16-18 in PDS (DOCA/saline) rats; MBG 7.65 μg/kg/d in normal pregnant rats (NPM); N = 10
Na^+K^+-ATPase (NKA) = test: Na^+K^+-ATPase activity (Malachite Green Phosphate Assay); format: biochemical, rat; settings: NKA from rat heart (SLP fraction); Pi read as OD 630 nm; FIG. 4
Procedure: Na^+K^+-ATPase (NKA) was purified from rat heart. The NKA was collected as the sarcolemmal/particulate (SLP) fraction and frozen.
Na^+K^+-ATPase activity was measured as follows: aliquots of SLP were mixed with Reaction Buffer (200 mM Tris-HCl, pH 7.5, 200 mM NaCL, 30 mM MgCl2, 60 mM KCl, 10 mM EGTA, 100 μg/mL PMSF, 2 μg/mL pepstatin A, and 2 μg/mL aprotinin). Reactions were performed with or without MBG and with or without anti-MBG antibodies (1-100 μg/mL). Ouabain was used as positive control for NKA inhibition. Tubes were prewarmed, and ATP was added. Reactions were stopped and were placed on ice.
Phosphate was assayed using the Malachite Green Phosphate Assay. Phosphate standard or sample was added to each well of a 96-well plate, followed by Reagent A. Reagent B was added, with mixing and incubation. OD was then read at 630 nm in a microplate spectrophotometer.

[2] = test system: PKC-δ in the nucleus of primary rat cardiac fibroblasts; test: Inhibition of MBG-induced PKC-δ nuclear translocation (Western blot); settings: for amount of PKC-δ in the nucleus, MBG plus antibody: MBG 2 nM, nuclei isolated 30 min later, FIG. 2a
Procedure: MBG was incubated with an anti-MBG antibody prior to addition to cultured primary rat cardiac fibroblasts. Nuclei were isolated 30 min later and analyzed for amount of PKC-6.

[3] = test system: pregnant Sprague-Dawley rats; test: DOCA/saline rat model of pre-eclampsia; format: in vivo; settings: antibodies 2.2 mg/kg/d i.p. days 16-18 in PDS rats
Procedure: Female Sprague-Dawley rats (200-250 g, Charles River Laboratories) were acclimatized for 1 week, and mated with male Sprague-Dawley rats (275-300 g). Pregnancy was confirmed by the presence of vaginal plugs or by examination of vaginal smears. Each rat was housed separately.
Five groups of rats were studied (n=10 per group): Group 1 (NP): normal pregnant rats; Group 2 (PDS): pregnant rats injected i.p. initially with 12.5 mg of DOCA in a depot form, followed by a weekly i.p. injection of 6.5 mg of DOCA, and whose drinking water is replaced with 0.9% saline; Group 3 (NPM): Normal pregnant rats given daily injections of MBG (7.65 μg per kg body weight per day) once pregnancy was established on day four of the experiment; Group 4 (PDS-3E9): rats administered DOCA and saline as for Group 2, and also given the murine anti-MBG antibody 3E9 (2.2 mg per kg body weight per day) on days 16, 17, and 18 of pregnancy; and Group 5 (PDS-H3L2): rats administered DOCA and saline as for Group 2, and also given the humanized anti-MBG antibody H3L2 (2.2 mg per kg body weight per day) on days 16, 17, and 18 of pregnancy.
Systolic blood pressure (BP) was measured by tail cuff at days 17-19. At least 3 readings are taken after BP has stabilized, and the mean of these values was calculated. The reported BP values are the mean of the daily measurements. At 18-20 days of pregnancy, 24-hour urine was collected in the absence of food to avoid contamination of the measurement of the protein amount in urine by any fallen food particles. Each rat was housed separately in a metabolic cage during this portion of the study. The 24-hour protein excretion was measured and was normalized to creatinine. The rats were sacrificed after the last measurement on days 18-20, and blood samples were taken. The number of fetal pups was counted and examined. The mean number of pups and any developmental or histological abnormalities in the pups were assessed. Statistical analysis was performed using analysis of variance and Tukey's post hoc test. A p value ≤0.05 was considered statistically significant.

[4] = ELISA avidity estimate on MBG-BSA; format: binding; settings: wells coated with 2 μg/ml MBG-BSA; IgG
Procedure: (§1) The avidity of anti-MBG antibodies for MBG was estimated in an ELISA. Wells of a microtiter plate were coated with 2 μg/ml of either MBG-bovine serum albumin (BSA) or MBG-keyhole limpet hemocyanin (KLH). The wells were then blocked with 1% BSA. A test IgG antibody at varying concentrations (typically from about 0.0001 nM to about 25 nM) was added to the wells. The test IgG bound to immobilized MBG was detected with an anti-human Fc, horseradish peroxidase (HRP)-conjugated secondary antibody (Jackson ImmunoResearch). After washing of the wells, an appropriate HRP reagent (e.g., TMB ultra, Thermo Fisher) was added to the wells. Optical density (OD) at 450 nm was measured by a microplate reader. The concentration of test antibody at the midpoint of the binding curve is an estimate of avidity for MBG.

[5] = Competitive ELISA, free CTS competitors overall (summary and footnote); format: binding; settings: competitors RBG, CINO, OUB, DIG; Table 2
Procedure: (§2) The specificity (relative affinity) of anti-MBG antibodies for MBG relative to various cardiotonic steroids (CTSs) was determined in a competitive ELISA. Each anti-MBG antibody was tested for its binding to immobilized MBG in the presence of free MBG, resibufogenin (RBG), cinobufagin (CINO), ouabain (OUB) or digoxin (DIG) as a competitor. A constant amount of an anti-MBG antibody (typically 1-5 μg/mL) and varying concentrations of each CTS (from 10^−12M to 10^−5M) were pre-incubated before being added to the MBG-BSA-coated wells. After washing of the wells, an anti-human Fc, HRP-conjugated secondary antibody (at 1:5000 dilution) was added to the wells and incubated at 37° C. for 1 hr. After washing of the wells, an appropriate HRP reagent (e.g., TMB ultra, Thermo Fisher) was added to the wells. OD at 450 nm was measured by a microplate reader. MBG at 10 μM was assumed to be 100% competed, and MBG at 1 pM was assumed to be 0% competed. The data was plotted as a titration of antibody-antigen binding relative to free CTS concentration in the competition reaction to determine the free CTS concentration (μM) giving 50% maximal binding of antibody to immobilized MBG. The relative specificity of an antibody for a CTS was normalized to MBG=100%.

[6] = Competitive ELISA, relative CTS specificity, free MBG as competitor; format: binding; settings: competition with immobilized MBG-BSA; normalized to MBG = 100%
Procedure: as §2

[7] = test system: human umbilical cord venous endothelial cells (HUVEC); test: Reversal of MBG inhibition of HUVEC cell proliferation (3H-thymidine); format: cell-based; settings: MBG 2 nM, antibody 20 μg/mL, 48 hr; FIG. 3a
Procedure: MBG (2 nM) was incubated with an antibody (20 μg/mL in FIG. 3a with human anti-MBG mAbs, or varying concentrations (2.5-10 μg/mL) in FIG. 3b with humanized anti-MBG mAbs) prior to addition to cultured human umbilical cord venous endothelial cells (HUVEC). After 48 hr, DNA synthesis was assessed by incorporation of ^3H-thymidine.
HUVEC cells in endothelial cell growth medium were plated onto 96-well plates. The next day, the cells were pretreated with various antibodies (2.5-20 μg/mL) and then incubated with 2 nM MBG for 48 hr. [^3H]-Thymidine was added to each well. [^3H]-Thymidine-labeled DNA was assayed by harvesting the cells and assaying for ^3H using a PerkinElmer Wallac Tailux liquid scintillation counter. […] Means were tested for significance using Student's t-test.

[8] = Competitive ELISA, relative CTS specificity, DIG as competitor; format: binding; settings: competition with immobilized MBG-BSA; normalized to MBG = 100%
Procedure: as §2

[9] = Competitive ELISA, relative CTS specificity, RBG as competitor; format: binding; settings: competition with immobilized MBG-BSA; normalized to MBG = 100%
Procedure: as §2

[10] = ELISA avidity estimate on MBG-KLH; format: binding; settings: wells coated with 2 μg/ml MBG-KLH; IgG
Procedure: as §1

[11] = Competitive ELISA, relative CTS specificity, CINO as competitor; format: binding; settings: competition with immobilized MBG-BSA; normalized to MBG = 100%
Procedure: as §2

[12] = Competitive ELISA, relative CTS specificity, OUB as competitor; format: binding; settings: competition with immobilized MBG-BSA; normalized to MBG = 100%
Procedure: as §2

Row | Molecule | inhibition of NKA activity (Na^+K^+-ATPase (NKA)) | Estimated avidity (KA) (antibody concentration at 50% maximal binding to antigen, or EC50), Antigen 1 (MBG-BSA) [4] | reaction with CTS competitor molecules [5] | Rel. CTS Specificity as % of MBG Binding: MBG [6] | MBG inhibition of HUVEC cell proliferation, human mAbs [7] | Rel. CTS Specificity as % of MBG Binding: DIG [8] | Rel. CTS Specificity as % of MBG Binding: RBG [9] | Estimated avidity (KA) (antibody concentration at 50% maximal binding to antigen, or EC50), Antigen 2 (MBG-KLH) [10] | amount of PKC-δ in the nucleus, MBG plus antibody [2] | Rel. CTS Specificity as % of MBG Binding: CINO [11] | Rel. CTS Specificity as % of MBG Binding: OUB [12] | also measured
1 | C[C@]12CC[C@H](O)C[C@@]1(O)CC[C@@H]1[C@@H]2CC[C@]2(C)[C@@H](c3ccc(=O)oc3)C[C@H]3O[C@]132 [MBG, marinobufagenin] | inhibit the NKA activity significantly |  |  |  |  |  |  |  |  |  |  | PCNA expression, MBG compared to vehicle (DMSO) (human CTB cells): significantly downregulated; phosphorylation of p38 MAPK, MBG compared to vehicle (DMSO) (human CTB cells): increased; secretion of P1GF, MBG compared to vehicle (DMSO) (human CTB cells): significantly reduced; secretion of VEGF, MBG compared to vehicle (DMSO) (human CTB cells): significantly reduced; secretion of sEng, MBG compared to vehicle (DMSO) (human CTB cells): significantly increased; secretion of sFlt1, MBG compared to vehicle (DMSO) (human CTB cells): significantly increased; Blood Pressure-Initial [1]: 104 ± 4 mm Hg; amount of PKC-δ in the nucleus, MBG alone compared to Control (vehicle) ([2]; MBG at 2 nM): induced an increase; % Malformed Pups ([3]; MBG 7.65 μg/kg/d in NPM rats): 18 * %; No. Pups ([3]; MBG 7.65 μg/kg/d in NPM rats): 9.5 ± 1.3; Urine Protein ([3]; normalized to creatinine, 18-20 days of pregnancy, MBG 7.65 μg/kg/d in NPM rats): 6.4 ± 1.8 mg/24 h; Blood Pressure-Final ([3]; tail cuff, 17-19 d of gestation, MBG 7.65 μg/kg/d in normal pregnant rats (NPM), N = 10): 137 ± 5 mm Hg
2 | C[C@@H]1O[C@@H](O[C@H]2C[C@@H](O)[C@]3(CO)[C@H]4[C@H](O)C[C@]5(C)[C@@H](C6=CC(=O)OC6)CC[C@]5(O)[C@@H]4CC[C@]3(O)C2)[C@H](O)[C@H](O)[C@H]1O [Ouabain, ouabain] | inhibit the NKA activity significantly |  |  |  |  |  |  |  |  |  |  | 
3 | B1 |  | 0.12 nM | did not react with any of the CTS competitor molecules | 100% | significantly reduced | 0% | 0% | 0.14 nM | reduced | 0% | 0% | 
4 | B2 |  | 0.33 nM | reacted with the CTS competitors RBG and CINO | 100% | significantly reduced | 0% | 50% | 0.20 nM | reduced | 20% | 0% | 
5 | B3 |  | 1.35 nM | reacted with CTS competitor RBG | 100% |  | 0% | 20% | 0.20 nM | reduced | 0% | 0% | 
